Assay results: PMC2836968 (Molecular Biology of the Cell, 2010)

B1: Aha1 N-terminal domain (amino acids 1-162) (domain or fragment)
chain: MAKWGEGDPRWIVEERADATNVNNWHWTERDASNWSTDKLKTLFLAVQVQNEEGKCEVTEVSKLDGEASINNRKGKLIFFYEWSVKLNWTGTSKSGVQYKGHVEIPNLSDENSVDEVEISVSLAKDEPDTNLVALMKEEGVKLLREAMGIYISTLKTEFTQG
B2: Aha1 C-terminal domain (amino acids 163-338, with the linker region 163-200) (domain or fragment)
chain: MILPTMNGESVDPVGQPALKTEERKAKPAPSKTQARPVGVKIPTCKITLKETFLTSPEELYRVFTTQELVQAFTHAPATLEADRGGKFHMVDGNVSGEFTDLVPEKHIVMKWRFKSWPEGHFATITLTFIDKNGETELCMEGRGIPAPEEERTRQGWQRYYFEGIKQTFGYGARLF

Target: human Hsp90β (human, UniProt P08238 1-724)
Test: SPR

Sequence of human Hsp90β (P08238 whole entry): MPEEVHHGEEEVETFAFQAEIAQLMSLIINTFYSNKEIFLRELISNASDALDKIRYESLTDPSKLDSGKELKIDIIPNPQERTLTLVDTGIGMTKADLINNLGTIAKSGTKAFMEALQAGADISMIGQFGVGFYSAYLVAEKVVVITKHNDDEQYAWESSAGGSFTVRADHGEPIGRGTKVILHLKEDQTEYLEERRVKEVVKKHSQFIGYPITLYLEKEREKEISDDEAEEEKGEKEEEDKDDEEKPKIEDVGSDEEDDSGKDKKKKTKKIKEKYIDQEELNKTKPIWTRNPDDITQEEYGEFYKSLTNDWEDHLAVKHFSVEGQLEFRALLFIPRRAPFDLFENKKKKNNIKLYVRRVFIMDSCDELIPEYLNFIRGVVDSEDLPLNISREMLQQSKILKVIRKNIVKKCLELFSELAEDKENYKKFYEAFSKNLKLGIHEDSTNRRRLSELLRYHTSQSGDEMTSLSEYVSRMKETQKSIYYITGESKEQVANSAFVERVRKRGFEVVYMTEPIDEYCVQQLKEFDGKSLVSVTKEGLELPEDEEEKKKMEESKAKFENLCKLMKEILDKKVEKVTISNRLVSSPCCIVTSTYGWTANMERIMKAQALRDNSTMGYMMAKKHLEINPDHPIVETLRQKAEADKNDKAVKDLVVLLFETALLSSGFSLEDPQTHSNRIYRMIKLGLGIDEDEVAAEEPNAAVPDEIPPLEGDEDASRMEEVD

| Binder | Kd [µM] |
| --- | --- |
| B1 | 2.5 |
| B2 | 3.8 |
